What was measured:
MS2 coat protein [1] = assay: apparent KD of MS2 coat protein; designed switch direction (-1 OFF switch, 1 ON switch): -1; higher = weaker reporter binding; settings: Eterna round: R98
Method: (§1)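 RNA-MaP: designed FMN/MS2 RNA switches (84 nt design region) are transcribed on-chip within common flanks and titrated with SNAP-549-labelled MS2 coat protein (about 1-3000 nM) in 100 mM Tris pH 7.5, 80 mM KCl, 4 mM MgCl2, without or with 200 uM FMN. Median apparent KD per design; activation ratio = KD,OFF / KD,ON.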

MS2 coat protein [2] = assay: apparent KD of MS2 coat protein; higher = weaker reporter binding; settings: Eterna round: R101
Method: as §1

| Sequence | apparent KD of MS2 coat protein (MS2 coat protein [1]; input ligand: FMN 200 uM) [nM] | apparent KD of MS2 coat protein (MS2 coat protein [1]; input ligand: none) [nM] | apparent KD of MS2 coat protein (MS2 coat protein [2]; input ligand: FMN 200 uM) [nM] | apparent KD of MS2 coat protein (MS2 coat protein [2]; input ligand: none) [nM] |
| --- | --- | --- | --- | --- |
| AAAAGAACCCGAGGAUAUGCGAAAUCACGAAGAGCAGAAGGCGGCUACAUGUGGAUCCGAGGACAUGAGGAUCACCCAUGUACG [Iszaaatce] | 165 | 321 |  |  |
| AAUAUAAAGAGCUGGCUUCUAAUAACAUGAGGAUCACCCAUGUAGGAUAUCAGCACGAUAAGUGCUGAGAAGGACAUCCAGCUC [Denovo 53] | 14.3 | 14.4 |  |  |
| AUGCCGUGCAGAGCGCAACGGCGUACAUGAGGAUCACCCAUGUAGGAUAUACUACACAAAGUGUAGUAGAAGGACAUGCGACUG [Ex NG2 #93] | 185 | 56.7 |  |  |
| CUAUAGAUAUGAGGAUAUGUAUAUCCAACAUGAGGAUCACCCAUGUUGAGGAUCACCCAUGUAAAGCAGAAGGCAUAUCUAUAG [#HighScoreProbStacks] (puzzle (switch architecture): Same State NG 2) |  |  | 16.6 | 21.5 |
| CUGUGACGGAUCCAGAAUUACAACAUGAGGAUCACCCAUGUGCAGGAUAUCGGGUUGAUAGGCGCCGAGAAGGGUAUGAUCACG [Ex NG2 #37] | 77.3 | 80 |  |  |
| GAACUCACGGCAUGCAUAUAAGCACAUGAGGAUCACCCAUGUCAGGAUAUCCACGGUCGUGCUUCGGAGAAGGGACAUGAGGCG [Lainxe] | 48 | 51.7 |  |  |
| GCCAUCGCAUGAGGAUAUGCUCCCGUUUCGGGAGCAGAAGGCAUGUCAUAAGACAUGAGGAUCACCCAUGUAGUUAAGAUGGCA (puzzle (switch architecture): Same State NG 1) |  |  | 11.7 | 285 |
| GGACGUCACAUUAACAUGAGGAUCACCCAUGUCAAAAGACAUGAGGAUAUGGAUCCUAAUUGGAUCCAGAAGGCAUGGACGUCC [#HiddenHairpinInALoop - Fiskers NG3ss - 39] (puzzle (switch architecture): Same State NG 3) |  |  | 14.8 | 236 |
| GGUACUCAAAGAGUACCAAUACGAACAUGAGGAUCACCCAUGUAGGAUAUGCUACUCAAAGAGUAGCAGAAGGACAUGUGUAAA [OmeiMod 10 - Jieux - Exclusion NG 3] | 567 | 92.4 |  |  |
| GUGGUUGUCGUAGGAUAUGUAGGAUAUUCCUACAUGAGGAUCACCCAUGUUCGCAUGGAAGAAGGACAGAAGGACGAUGACCAG [salish99_SSNG2_011 #endbits investigation] (puzzle (switch architecture): Same State NG 2) |  |  | 9.85 | 855 |
| UAAGUCGGAAGAUAAUAAUGAAUACAUGAGGAUCACCCAUGUAAGGAUAUGCAGUGGAAUACACUGCAGAAGGUACAAACCGAC [Exclusion NG 3/17-A2] | 24.6 | 15.2 |  |  |
| UCAUACAUGAGGAUCACCCAUGACAUGAGGAUCACCCAUGUGCAGGAUAUACGUGAUAUAAUAUAGUAGAAGGGCAGACUAUAA [LRO006_Exclusion NG 3] | 53 | 39.8 |  |  |
| UCUUAAAUGAUCCUAUUUACCAACAUGAGGAUCACCCAUGUGCAGGAUAUGCUAAAGAUAAAUAAGCAGAAGGGCAAUAACCGC [JR_ExcNG3_Sub007] | 608 | 127 |  |  |
| UGUAUUAAUGGAGGAUAUCAAUAUCAAACAUGAGGAUCACCCAUGUUGAGGAUCACCCAUGUCCAUGAGAAGGCUGGCGUACGU [My 19th design] (puzzle (switch architecture): Same State NG 2) |  |  | 10.9 | 9.37 |

Source: the supplement of paper PMC9170038
